According to patent publication EP2014310A2 (Dyax Corporation, dated 2009):
Bridge positions count the residues as written; N and C are the ends. Side chains are listed from the residue outwards. I, II: the chains in the order shown. * marks the point of attachment. Biotin = O=C1N[C@H]2[C@H](CS[C@H]2CCCCC(=O)*)N1; ivDde = CC(C)CC(=C1C(=O)CC(C)(C)CC1=O)*; AEEA = NCCOCCOCC(=O)O

B1: dimer 25 (D25) (peptide)
peptide 1: Ac-AGPTWCEDDWYYCWLFGTGGGK-NH2
peptide 2: Ac-GDSRVCWEDSWGGEVCFRYDPGGGK-NH2
modifications: disulfide I:6-I:13, II:6-II:16 (inferred); not fully specified (some residues, bridges); printed as Ac-AGPTWCEDDWYYCWLFGTGGGK{Ac-GDSRVCWEDSWGGEVCFRYDPGGGK[JJ-Glut-NH(CH_2)4-(S)-CH(NH_2)C(=O)-]-NH_2}-NH_2; also: heterodimer, chain 2 C-terminal Lys joined to linker
B2: dimer 17 (D17) (peptide)
peptide 1: AQDWYYDEILGRGGRGGRGGK
peptide 2: VCWEDSWGGEVCFRYDPGGGK
modifications: not fully specified; N-terminal acetyl; C-terminal Lys(JJ-Glut)-NH2; N-terminal acetyl; contains J (8-amino-3,6-dioxaoctanoyl); C-terminal Lys joined to linker K
B3: SEQ ID NO:326 (peptide)
peptide: Ac-AQEGWFRNPQEIMGFGDSWDKPGGGGGK-NH2
modifications: not fully specified; also: C-terminal Lys fluorescein-labeled in some assay forms
B4: SEQ ID NO:325 (peptide)
peptide: Ac-AQAPAWTFGTNWRSIQRVDSLTGGGGGK-NH2
modifications: not fully specified; also: C-terminal Lys fluorescein-labeled in some assay forms
B5: SEQ ID NO:323 (peptide)
peptide: Ac-AGYGPCKNMPPWMCWHEGTGGGK-NH2
modifications: disulfide 6-14 (inferred); not fully specified; also: C-terminal Lys fluorescein-labeled in some assay forms
B6: SEQ ID NO:322 (peptide)
peptide: Ac-AGYGPCAEMSPWLCWYPGTGGGK-NH2
modifications: disulfide 6-14 (inferred); not fully specified; also: C-terminal Lys fluorescein-labeled in some assay forms
B7: SEQ ID NO:324 (peptide)
peptide: Ac-AGGHPCKGMLPHTCWYEGTGGGK-NH2
modifications: disulfide 6-14 (inferred); not fully specified; also: C-terminal Lys fluorescein-labeled in some assay forms
B8: SEQ ID NO:321 (peptide)
peptide: Ac-AGPGPCKGYMPHQCWYMGTGGGK-NH2
modifications: disulfide 6-14 (inferred); not fully specified; also: C-terminal Lys fluorescein-labeled in some assay forms

These binders were tested against KDR on human umbilical vein endothelial cells (HUVECs) (human, UniProt P35968 20-1356) (assay: cell-based or functional assay).
KDR on human umbilical vein endothelial cells (HUVECs), sequence (P35968 20-1356): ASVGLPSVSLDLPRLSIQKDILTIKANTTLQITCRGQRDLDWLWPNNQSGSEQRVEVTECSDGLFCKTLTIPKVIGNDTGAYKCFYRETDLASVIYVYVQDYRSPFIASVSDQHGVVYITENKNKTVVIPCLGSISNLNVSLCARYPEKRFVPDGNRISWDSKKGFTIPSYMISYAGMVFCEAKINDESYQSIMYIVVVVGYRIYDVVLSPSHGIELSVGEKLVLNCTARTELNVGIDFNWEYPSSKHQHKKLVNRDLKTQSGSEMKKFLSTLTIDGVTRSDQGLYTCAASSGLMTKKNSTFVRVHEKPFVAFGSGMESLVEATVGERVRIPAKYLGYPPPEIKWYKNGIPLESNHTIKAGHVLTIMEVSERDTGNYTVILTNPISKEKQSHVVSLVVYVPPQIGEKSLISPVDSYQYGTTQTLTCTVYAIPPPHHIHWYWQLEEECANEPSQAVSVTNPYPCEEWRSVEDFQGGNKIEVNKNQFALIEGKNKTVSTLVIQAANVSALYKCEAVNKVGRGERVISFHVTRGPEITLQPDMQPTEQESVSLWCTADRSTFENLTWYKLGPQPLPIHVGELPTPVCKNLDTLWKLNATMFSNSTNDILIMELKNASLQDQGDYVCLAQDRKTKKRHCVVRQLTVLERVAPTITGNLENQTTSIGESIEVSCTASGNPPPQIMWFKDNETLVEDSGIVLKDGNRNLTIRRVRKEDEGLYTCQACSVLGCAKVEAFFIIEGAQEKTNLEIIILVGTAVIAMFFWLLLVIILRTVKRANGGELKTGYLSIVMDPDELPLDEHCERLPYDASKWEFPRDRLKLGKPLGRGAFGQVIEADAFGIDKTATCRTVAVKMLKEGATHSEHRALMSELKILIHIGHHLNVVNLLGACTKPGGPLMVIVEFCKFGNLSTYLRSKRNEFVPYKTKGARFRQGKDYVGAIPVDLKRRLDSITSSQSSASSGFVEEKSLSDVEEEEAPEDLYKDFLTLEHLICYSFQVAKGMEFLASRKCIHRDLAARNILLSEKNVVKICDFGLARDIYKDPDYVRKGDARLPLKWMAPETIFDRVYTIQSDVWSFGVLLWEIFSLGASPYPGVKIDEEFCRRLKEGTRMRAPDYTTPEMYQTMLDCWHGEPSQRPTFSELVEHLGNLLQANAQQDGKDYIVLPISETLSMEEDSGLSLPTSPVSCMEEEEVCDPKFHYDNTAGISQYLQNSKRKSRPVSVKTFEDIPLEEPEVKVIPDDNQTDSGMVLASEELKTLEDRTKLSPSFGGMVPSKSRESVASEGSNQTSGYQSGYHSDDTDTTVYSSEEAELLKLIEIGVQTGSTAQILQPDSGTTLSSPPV

Binder | VEGF-induced KDR phosphorylation in HUVECs [% inhibition at 10 µM] | IC50, VEGF-induced migration of HUVECs [nM] | IC50, receptor activation assay [nM]
Ac-AQAFPRFGGDDYWIQQYLRYTDGGK-NH2 (not fully specified) [SEQ ID NO:306] | ≥ 50 |  | 
B1 |  | 5 | 
Ac-AQEPEGYAYWEVITLYHEEDGDGGK-NH2 (not fully specified) [SEQ ID NO:305] | ≥ 50 |  | 
Ac-AGWLECYAEFGHCYNFGTGGGK-NH2 (disulfide 6-13 (inferred); not fully specified) [SEQ ID NO:267] | ≥ 50 |  | 
B2 |  | ~250 | 
Ac-AGWIECYHPDGICYHFGTGGGK-NH2 (disulfide 6-13 (inferred); not fully specified) [SEQ ID NO:269] | ≥ 50 |  | 
Ac-GDWWECK(ivDde)REEYRNTTWCAWADPGGGK-NH2 (disulfide 6-17 (inferred)) [Ac-GDWWECK(ivDde)REEYRNTTWCAWADPGGGK-NH2 (SEQ ID NO:366 having a blocked K)] | ≥ 50 |  | 
Ac-GDPDTCTMWGDSGRWYCFPADPGGGK-NH2 (disulfide 6-17 (inferred); not fully specified) [SEQ ID NO:301] | ≥ 50 |  | 
Ac-AQGDYVYWEIIELTGATDHTPPGGK-NH2 (not fully specified) [SEQ ID NO:307] | ≥ 50 |  | 
VCWEDSWGGEVCFRYDPGGGK [SEQ ID NO:337 monomeric free peptide (VCWEDSWGGEVCFRYDPGGGK)] |  |  | 1000

The binders below were run against KDR on transiently KDR-transfected 293H cells (human) (UniProt P35968) (assay: neutravidin-HRP complexes, KDR minus mock 293H cells).
KDR on transiently KDR-transfected 293H cells (human), sequence (P35968 20-1356): as the sequence (P35968 20-1356) above

Binder | ratio of specific binding to that of monomer (Tetramer) | ratio of specific binding to that of monomer (Dimer) | ratio of specific binding to that of monomer (Trimer)
Ac-AQDWYYDEILSMADQLRHAFLSGGGGGK([AEEA-AEEA-Biotin])-NH2 (peptide, part only; not given: neutravidin-HRP, not shown: large carriers, also: tetrameric complex with neutravidin-HRP) [tetrameric complex of biotinylated SEQ ID NO:356 (JJ spacer) with neutravidin-HRP] | 16 |  | 
Ac-AQDWYYDEILSMADQLRHAFLSGGGGGK([AEEA-AEEA-Biotin])-NH2 (peptide, part only; not given: control peptide and neutravidin-HRP, not shown: large carriers, also: neutravidin-HRP complex with biotinylated control peptide (dimer)) [neutravidin-HRP complex of SEQ ID NO:356 and control peptide, dimer] |  | 2.3 | 
Ac-AQDWYYDEILSMADQLRHAFLSGGGGGK([AEEA-AEEA-Biotin])-NH2 (peptide, part only; not given: control peptide and neutravidin-HRP, not shown: large carriers, also: neutravidin-HRP complex with biotinylated control peptide (trimer)) [neutravidin-HRP complex of SEQ ID NO:356 and control peptide, trimer] |  |  | 5.7

Each binder was assayed against T1, human KDR-Fc fusion (R&D Systems #357-KD-050) (human, UniProt P35968 20-764) (assay: Biacore, KDR-Fc on CM5 chip, unlabeled peptide).
T1 construct: bought
T1 sequence (P35968 20-764): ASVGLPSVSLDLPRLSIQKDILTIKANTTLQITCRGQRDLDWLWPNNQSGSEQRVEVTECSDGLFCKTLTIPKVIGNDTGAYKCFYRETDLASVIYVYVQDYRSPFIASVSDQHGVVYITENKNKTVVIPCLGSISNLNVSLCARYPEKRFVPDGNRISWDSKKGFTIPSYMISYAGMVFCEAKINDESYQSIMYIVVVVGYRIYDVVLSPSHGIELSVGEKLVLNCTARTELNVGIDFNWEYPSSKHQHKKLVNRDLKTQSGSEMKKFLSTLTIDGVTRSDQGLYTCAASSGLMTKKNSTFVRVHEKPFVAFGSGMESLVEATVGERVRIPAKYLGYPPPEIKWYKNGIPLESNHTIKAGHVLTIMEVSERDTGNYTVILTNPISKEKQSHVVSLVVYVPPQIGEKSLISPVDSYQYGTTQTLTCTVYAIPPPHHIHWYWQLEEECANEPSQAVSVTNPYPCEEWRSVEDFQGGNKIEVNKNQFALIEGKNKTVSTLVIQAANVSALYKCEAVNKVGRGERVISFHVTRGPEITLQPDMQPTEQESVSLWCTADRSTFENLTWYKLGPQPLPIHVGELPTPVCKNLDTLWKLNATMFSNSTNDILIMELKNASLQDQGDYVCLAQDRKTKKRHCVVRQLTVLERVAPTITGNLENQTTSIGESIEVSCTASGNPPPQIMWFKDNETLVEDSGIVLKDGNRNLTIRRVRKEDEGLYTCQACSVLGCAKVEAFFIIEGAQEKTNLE

Binder | Kd [nM]
Ac-AQAFPRFGGDDYWIQQYLRYTDGGK-NH2 (not fully specified) [SEQ ID NO:306] | 250
Ac-AQEPEGYAYWEVITLYHEEDGDGGK-NH2 (not fully specified) [SEQ ID NO:305] | 730
Ac-GSDHHCYLHNGQWICYPFAPGGGK-NH2 (disulfide 6-15 (inferred); not fully specified) [SEQ ID NO:314] | 150
Ac-AGWIECYHPDGICYHFGTGGGK-NH2 (disulfide 6-13 (inferred); not fully specified) [SEQ ID NO:269] | 320
Ac-AGIDFCKGMAPWLCADMGTGGGK-NH2 (disulfide 6-14 (inferred); not fully specified) [SEQ ID NO:311] | 180
Ac-GDPDTCTMWGDSGRWYCFPADPGGGK-NH2 (disulfide 6-17 (inferred); not fully specified) [SEQ ID NO:301] | 260

The binders below were run against T1, human KDR-Fc fusion (R&D Systems …) (assay: fluorescence anisotropy, fluorescein-labeled peptide).

Binder | Kd [nM]
Ac-AQAFPRFGGDDYWIQQYLRYTDGGK-NH2 (not fully specified) [SEQ ID NO:306] | 530
Ac-AQEPEGYAYWEVITLYHEEDGDGGK-NH2 (not fully specified) [SEQ ID NO:305] | 270
Ac-GSDHHCYLHNGQWICYPFAPGGGK-NH2 (disulfide 6-15 (inferred); not fully specified) [SEQ ID NO:314] | 260
Ac-AGWIECYHPDGICYHFGTGGGK-NH2 (disulfide 6-13 (inferred); not fully specified) [SEQ ID NO:269] | 320
Ac-AGIDFCKGMAPWLCADMGTGGGK-NH2 (disulfide 6-14 (inferred); not fully specified) [SEQ ID NO:311] | 730
Ac-GDPDTCTMWGDSGRWYCFPADPGGGK-NH2 (disulfide 6-17 (inferred); not fully specified) [SEQ ID NO:301] | 490
Ac-AQGDYVYWEIIELTGATDHTPPGGK-NH2 (not fully specified) [SEQ ID NO:307] | 180

Molecular target: T1, human KDR-Fc fusion (R&D Systems …)
Assay: as above
Remark: another data set of the same source

Binder | binding result
B3 | no binding
B4 | no binding

What follows are binders tested against VEGF165 (Peprotech #100-20) (UniProt P15692-4 27-191) in the same assay as above.
VEGF165 (Peprotech #100-20), sequence (P15692 other isoform, or with tags, fused parts or gaps limits assumed): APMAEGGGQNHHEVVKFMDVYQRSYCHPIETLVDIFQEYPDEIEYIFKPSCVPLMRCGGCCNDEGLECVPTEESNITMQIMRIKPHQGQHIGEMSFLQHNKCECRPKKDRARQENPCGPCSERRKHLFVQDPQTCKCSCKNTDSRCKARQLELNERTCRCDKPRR

Binder | binding result
B5 | no binding
B6 | no binding
B3 | no binding
B4 | no binding
B7 | no binding
B8 | no binding

What follows are binders tested against T1, human KDR-Fc fusion (R&D Systems …) (assay: phage binding screen on KDR-Fc; class legend in paragraph 246).

Binder | binding result
WYWCEFYGVCSEE [phage isolate WYWCEFYGVCSEE] | binds
GITCDELGRCVHW [phage isolate GITCDELGRCVHW] | binds
WIQCNHQGQCFHG [phage isolate WIQCNHQGQCFHG] | binds
GVECNHMGLCVSW [phage isolate GVECNHMGLCVSW] | binds
WIECNKDGKCWHY [phage isolate WIECNKDGKCWHY] | binds
WVECNHKGLCREY [phage isolate WVECNHKGLCREY] | binds

Molecular target: T1, human KDR-Fc fusion (R&D Systems …)
Assay: as above
Remark: another data set of the same source

Binder | binding result
RGPCSGQPWHLCYYQ [phage isolate RGPCSGQPWHLCYYQ] | binds
IDFCKGMAPWLCADM [phage isolate IDFCKGMAPWLCADM] | binds
PWTCWLEDHLACAML [phage isolate PWTCWLEDHLACAML] | binds
MPWCSEVTWGWCKLN [phage isolate MPWCSEVTWGWCKLN] | binds

Molecular target: T1, human KDR-Fc fusion (R&D Systems …)
Assay: as above
Remark: another data set of the same source

Binder | binding result
NSHCYIWDGMWLCFPD [phage isolate NSHCYIWDGMWLCFPD] | binds
DHHCYLHNGQWICYPF [phage isolate DHHCYLHNGQWICYPF] | binds

The binders below were run against T2, KDR/VEGF complex (KDR-Fc mixed or saturated with VEGF) (human, UniProt P35968 20-764; P15692 27-191) (assay: Biacore, KDR-Fc chip saturated with VEGF, unlabeled peptide).
T2 construct: anisotropy: two fold molar excess of VEGF mixed with KDR-Fc; Biacore: KDR-Fc chip saturated with VEGF; also called KDR:VEGF165 complex
T2 sequence (P35968 20-764, chain 1 of 2): as the sequence (P35968 20-764) above
T2 sequence (P15692 other isoform, or with tags, fused parts or gaps, chain 2 of 2): as the sequence (P15692 other isoform, or with tags, fused parts or gaps limits assumed) above

Binder | Kd [nM]
B5 | 420
B8 | 80

Each binder was assayed against T1, human KDR-Fc fusion (R&D Systems …) (assay: fluorescence anisotropy, fluorescein-labeled peptide, KDR-Fc alone).

Binder | Kd [nM]
B5 | 1800
B6 | 3700
B8 | 400

The binders below were run against T2, KDR/VEGF complex (KDR-Fc mixed or …) (assay: fluorescence anisotropy, fluorescein-labeled peptide, KDR-Fc with two fold excess VEGF).

Binder | Kd [nM]
B5 | 180
B6 | 130
B3 | 1400
B4 | 840
B7 | 3300
B8 | 60
